One molecule from publication doi:10.1101/2023.04.24.538075 (bioRxiv, 2023) can be followed below.

The test addresses T1, Cdc24-H (S. cerevisiae, UniProt P11433 1-854).
T1 sequence: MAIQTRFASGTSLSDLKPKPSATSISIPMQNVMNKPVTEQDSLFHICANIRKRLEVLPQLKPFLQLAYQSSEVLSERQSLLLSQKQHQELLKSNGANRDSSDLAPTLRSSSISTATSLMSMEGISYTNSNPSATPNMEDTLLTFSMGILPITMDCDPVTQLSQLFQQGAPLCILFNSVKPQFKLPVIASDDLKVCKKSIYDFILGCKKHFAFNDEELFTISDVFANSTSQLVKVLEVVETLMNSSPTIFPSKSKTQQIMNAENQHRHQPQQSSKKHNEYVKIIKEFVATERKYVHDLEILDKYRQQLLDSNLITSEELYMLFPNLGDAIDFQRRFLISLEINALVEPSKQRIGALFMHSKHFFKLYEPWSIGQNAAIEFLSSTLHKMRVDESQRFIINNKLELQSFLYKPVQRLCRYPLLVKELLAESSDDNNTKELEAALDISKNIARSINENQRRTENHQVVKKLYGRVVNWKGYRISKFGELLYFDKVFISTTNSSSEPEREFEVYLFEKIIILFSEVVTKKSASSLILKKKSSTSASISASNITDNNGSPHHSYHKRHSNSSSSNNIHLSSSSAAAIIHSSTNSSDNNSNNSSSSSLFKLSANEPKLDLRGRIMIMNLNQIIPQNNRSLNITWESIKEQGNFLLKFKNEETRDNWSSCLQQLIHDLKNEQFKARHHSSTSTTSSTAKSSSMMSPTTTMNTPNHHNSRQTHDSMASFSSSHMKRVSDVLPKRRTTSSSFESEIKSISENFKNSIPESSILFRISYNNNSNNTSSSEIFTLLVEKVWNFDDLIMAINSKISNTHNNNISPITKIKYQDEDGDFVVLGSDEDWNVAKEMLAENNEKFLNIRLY
As to the kind of experiment: pull-down.

B1: H-Bem1-F (natural protein)
chain: MLKNFKLSKRDSNGSKGRITSADISTPSHDNGSVIKHIKTVPVRYLSSSSTPVKSQRDSSPKNRHNSKDITSPEKVIKAKYSYQAQTSKELSFMEGEFFYVSGDEKDWYKASNPSTGKEGVVPKTYFEVFDRTKPSSVNGSNSSSRKVTNDSLNMGSLYAIVLYDFKAEKADELTTYVGENLFICAHHNCEWFIAKPIGRLGGPGLVPVGFVSIIDIATGYATGNDVIEDIKSVNLPTVQEWKSNIARYKASNISLGSVEQQQQQSITKPQNKSAKLVDGELLVKASVESFGLEDEKYWFLVCCELSNGKTRQLKRYYQDFYDLQVQLLDAFPAEAGKLRDAGGQWSKRIMPYIPGPVPYVTNSITKKRKEDLNIYVADLVNLPDYISRSEMVHSLFVVLNNGFDREFERDENQNNIKTLQENDTATFATASQTSNFASTNQDNTLTGEDLKLNKKLSDLSLSGSKQAPAQSTSGLKTTKIKFYYKDDIFALMLKGDTTYKELRSKIAPRIDTDNFKLQTKLFDGSGEEIKTDSQVSNIIQAKLKISVHDI
For the molecule B1, the binding result is “binds”.
